Reference: the supplement of paper PMC12042874
± gives the uncertainty stated by the source.

assay: amyloid nucleation score (Sup35N fusion, yeast selection) (log enrichment); library NNK2; higher = more nucleation; inactive = no reads after selection
How it was run: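 Sup35N was fused to peptides of 20 random codons and expressed in psi-negative yeast, which were induced with 100 μM copper sulfate for 24 hours and then grown on medium lacking adenine and uracil for 7 days at 30°C. Plasmid inserts from input and output were sequenced on Illumina. The nucleation score is the DiMSum log enrichment of output over input reads, centred on the mode score of non-aggregating sequences. Sequences with under 100 input reads were left out, and random libraries had three technical output replicates.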

Substance | amyloid nucleation score
KYCMRDDSSSLMYLWGCTRG | -0.168 ± 0.29
KYFRICRVYLNTLLPLVTLV | inactive
KYSAQIL | 0.172 ± 0.33
KYSCTLVPFLLARFDLGSWG | -0.112 ± 0.34
KYSVMLALLEPIRWTWLIQF | 0.323 ± 0.62
KYTGNFGAVSL | 0.22 ± 0.65
KYVGSWITTDVSFECTVI | -0.46 ± 1
LACIPGGKVNSPLGWHGFRD | 0.057 ± 1.1
LADQSYKPAWLFPGSTSVLV | 0.078 ± 0.74
LADTGA | 0.108 ± 0.42
LAFPCFRVSGYESYGFVRKL | 0.436 ± 0.31
LAFTFRSTRRTTSHSEVSSS | 1.38 ± 0.43
LAGLYYVGVVENGMDMQDRK | -0.329 ± 0.29
LAHGG | 3.16 ± 0.095
LAHVVNIVCFNF | 7.836 ± 0.026
LAKADPWHLKMLFSAMLRQD | 0.332 ± 0.26
LALSWRNDSYNLKNVLRLLG | -1.16 ± 0.28
LANFGIIVWCCTCFYDD | 8.268 ± 0.039
LANLTSWSILMAKRRLRLTL | 1.06 ± 0.33
LARSLSVNQYKPNLLFVGCD | -1.52 ± 1.1
LASAFG | -0.792 ± 0.79
LASFFCFGIINTAC | -0.019 ± 0.17

Substance | amyloid nucleation score
LASLSDFPFYLTWWS | -0.157 ± 0.45
LASTDTWHCVGGEFHKSA | -0.571 ± 0.28
LAVLGIYDTLLYCHTVLYEI | -0.302 ± 0.36
LAWSVLNMFRKVAFN | 0.089 ± 1.1
LAYIARR | -0.035 ± 0.76
LAYLYTCLLLWSGSCNMTQV | inactive
LCCGSLDIYWFVFFF | 1.63 ± 0.25
LCCRCIKVIAALKLNIENHQ | 3.65 ± 0.095
LCDPLLVKNCRLRLTVLWGM | -0.057 ± 0.63
LCGLSTLLFFKMDV | 0.716 ± 0.6
LCIYFICSGLVRRLEWVG | -0.871 ± 0.3
LCLVQLSDSCNQ | 7.917 ± 0.055
LCNGGWIIRRADVSGVTNVE | -0.09 ± 0.24
LCNYLFSFEQMRNN | -0.124 ± 0.42
LCRDCPNRVQLCQLL | -0.684 ± 0.54
LCSSVLGGNRETAECFRFDQ | -0.67 ± 0.34
LCSTG | 0.815 ± 0.53
LCTGTCDTSAHVSSIYKFRD | -0.712 ± 1.1
LCVSAVLKLVGNLWDDEREC | -0.091 ± 0.79
LCWCWKSWHNARRWTSWRMF | 0.13 ± 0.56
LCWPIFNFVFVSNPMLKLRL | inactive
LCYSFYPQSVKSFEFPNYFY | inactive

Substance | amyloid nucleation score
LDDSYPCFASIITI | 1.01 ± 0.41
LDIYLLDMLWPLCAVLSNIG | -0.541 ± 0.38
LDNACSQGGGDFRLSLS | -0.773 ± 0.55
LDTARVNGDSYWSL | 3.57 ± 0.11
LDTHRPPYQDRVWLTRSANT | 1.79 ± 0.24
LDTVPTWFYQVMWGYDWVLK | 2.81 ± 0.11
LDWHAEHKGSCSFPDNEMLS | 0.394 ± 0.56
LELHMGNLSSSTAYWLRRYS | -0.426 ± 0.48
LFADGFGSRINDCNTVSMF | 0.881 ± 0.47
LFALLK | -0.005 ± 0.54
LFARWTFDNFSLRVVLQTRI | -0.861 ± 0.25
LFCVRSRLGVGCYRIWG | 5.364 ± 0.046
LFDGASMSRRIVMWDMGWWG | 4.54 ± 0.046
LFDLDSESRMTPQGGLRNAT | -0.665 ± 0.54
LFEAWSIYIYFASLKGTAGG | -1.26 ± 1.1
LFEMP | 0.728 ± 0.74
LFFALSMCSIF | 6.348 ± 0.032
LFGFLTTRVPWIFSWMVPTA | -0.003 ± 0.44
LFGYGQEDGQWCGDEFETVK | 0.769 ± 0.26
LFHCLSELLVGSSNSRFVCE | 0.456 ± 0.42
LFLRAHILGTVTCIRDFAPG | 1.14 ± 0.18
LFLSLKYPLSYYASTVDNLA | 0.6 ± 0.74

Substance | amyloid nucleation score
LFMLGMSAQLVFAFSLLGGI | 2.62 ± 0.078
LFMNRHVYVLQVVEMYKRQT | -1.07 ± 1.1
LFRCIKDMAY | 0.202 ± 0.51
LFRQEAMIPL | 0.594 ± 0.66
LFRWM | 3.92 ± 0.06
LFSHFYSYDY | -0.317 ± 1.1
LFSHL | -1.4 ± 0.54
LFSKDVSRTLGPACFICEGT | 2.78 ± 0.072
LFVDKMCERDFYFVSSHRYR | 0.306 ± 0.8
LFVRAFEPSGDHLCYQYVCL | -0.566 ± 0.38
LFWFIYGSYRTVRACGRYSN | 0.516 ± 0.64
LGIASLQNGSGIGAWQAY | 0.04 ± 0.76
LGIVHGNNY | -1.14 ± 0.76
LGLLFAINTVLSSQLR | 7.703 ± 0.076
LGMSGCVCSYVYLRGFGLIL | -0.658 ± 0.37
LGPEYTWQI | 0.548 ± 0.42
LGQSCTYQCQQLCSLSHNRV | -0.214 ± 1.1
LGQVTDLSILCSSDQSLMVC | -0.075 ± 0.26
LGRCY | 2.72 ± 0.062
LGRQWFRIARGG | 0.654 ± 0.32
LGTEAEWCVGLMCSVKRYQM | 4.58 ± 0.068
